System: Escherichia coli TOP10
Assay: shrunken log2 fold change of peptide-encoding DNA abundance (4.5 h post-induction vs induction); higher = less antimicrobial activity (less host growth inhibition)
Details: time post-induction: 4.5 h; library: site-saturation at positions 5, 18, 19, 20
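Further: peptides expressed intracellularly from a pBAD plasmid library in pooled LB shake-flask culture, induced with 0.3% L-arabinose, DNA abundance read by NGS, three biological replicates, DESeq2 with apeglm shrinkage.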

Row | Sequence | shrunken log2 fold change
1 | RRIRKRPPRLPRPRPRPMQYPRP | -0.0135
2 | RRIRKRPPRLPRPRPRPMRQPRP | 0.384
3 | RRIRKRPPRLPRPRPRPMTEPRP | 0.0103
4 | RRIRKRPPRLPRPRPRPMWAPRP | 0.184
5 | RRIRKRPPRLPRPRPRPMWFPRP | 0.0615
6 | RRIRKRPPRLPRPRPRPMWHPRP | -0.183
7 | RRIRKRPPRLPRPRPRPMYAPRP | -0.145
8 | RRIRKRPPRLPRPRPRPMYGPRP | 0.00748
9 | RRIRKRPPRLPRPRPRPNANPRP | 0.135
10 | RRIRKRPPRLPRPRPRPNDAPRP | 0.0832
11 | RRIRKRPPRLPRPRPRPNDCPRP | -0.0159
12 | RRIRKRPPRLPRPRPRPNDWPRP | 0.455
13 | RRIRKRPPRLPRPRPRPNEAPRP | -0.00686
14 | RRIRKRPPRLPRPRPRPNEVPRP | -0.152
15 | RRIRKRPPRLPRPRPRPNGGPRP | 0.0116
16 | RRIRKRPPRLPRPRPRPNHGPRP | -0.0607
17 | RRIRKRPPRLPRPRPRPNINPRP | -0.169
18 | RRIRKRPPRLPRPRPRPNKFPRP | -0.0338
19 | RRIRKRPPRLPRPRPRPNKVPRP | -0.00759
20 | RRIRKRPPRLPRPRPRPNKWPRP | -0.0156
21 | RRIRKRPPRLPRPRPRPNLNPRP | -0.356
22 | RRIRKRPPRLPRPRPRPNMMPRP | 0.172
23 | RRIRKRPPRLPRPRPRPNNFPRP | -0.0233
24 | RRIRKRPPRLPRPRPRPNPHPRP | 0.188
25 | RRIRKRPPRLPRPRPRPNQFPRP | 0.103

Row | Sequence | shrunken log2 fold change
26 | RRIRKRPPRLPRPRPRPNQIPRP | 0.105
27 | RRIRKRPPRLPRPRPRPNQMPRP | 0.234
28 | RRIRKRPPRLPRPRPRPNQRPRP | -0.192
29 | RRIRKRPPRLPRPRPRPNRTPRP | -0.0227
30 | RRIRKRPPRLPRPRPRPNTDPRP | -0.261
31 | RRIRKRPPRLPRPRPRPNTNPRP | -0.0445
32 | RRIRKRPPRLPRPRPRPNVRPRP | -0.0184
33 | RRIRKRPPRLPRPRPRPNVSPRP | 0.106
34 | RRIRKRPPRLPRPRPRPNWLPRP | 0.246
35 | RRIRKRPPRLPRPRPRPNYIPRP | -0.0745
36 | RRIRKRPPRLPRPRPRPNYLPRP | -0.0798
37 | RRIRKRPPRLPRPRPRPNYMPRP | -0.117
38 | RRIRKRPPRLPRPRPRPNYNPRP | 0.0883
39 | RRIRKRPPRLPRPRPRPNYWPRP | 0.157
40 | RRIRKRPPRLPRPRPRPPAKPRP | 0.408
41 | RRIRKRPPRLPRPRPRPPAWPRP | 0.602
42 | RRIRKRPPRLPRPRPRPPEDPRP | 3.39
43 | RRIRKRPPRLPRPRPRPPETPRP | 0.651
44 | RRIRKRPPRLPRPRPRPPFDPRP | 0.586
45 | RRIRKRPPRLPRPRPRPPFRPRP | 0.566
46 | RRIRKRPPRLPRPRPRPPFWPRP | 1.2
47 | RRIRKRPPRLPRPRPRPPHRPRP | 0.501
48 | RRIRKRPPRLPRPRPRPPICPRP | 0.684
49 | RRIRKRPPRLPRPRPRPPIKPRP | 0.0648
50 | RRIRKRPPRLPRPRPRPPLNPRP | 0.309

Row | Sequence | shrunken log2 fold change
51 | RRIRKRPPRLPRPRPRPPNEPRP | 1.68
52 | RRIRKRPPRLPRPRPRPPNLPRP | 0.492
53 | RRIRKRPPRLPRPRPRPPPTPRP | 1.11
54 | RRIRKRPPRLPRPRPRPPSVPRP | 0.282
55 | RRIRKRPPRLPRPRPRPPTGPRP | 0.265
56 | RRIRKRPPRLPRPRPRPPVGPRP | 1.04
57 | RRIRKRPPRLPRPRPRPPVWPRP | 0.448
58 | RRIRKRPPRLPRPRPRPQAMPRP | 0.146
59 | RRIRKRPPRLPRPRPRPQCAPRP | 0.28
60 | RRIRKRPPRLPRPRPRPQCIPRP | -0.149
61 | RRIRKRPPRLPRPRPRPQCPPRP | -0.000549
62 | RRIRKRPPRLPRPRPRPQDDPRP | 0.00685
63 | RRIRKRPPRLPRPRPRPQDHPRP | 0.103
64 | RRIRKRPPRLPRPRPRPQDYPRP | 0.118
65 | RRIRKRPPRLPRPRPRPQERPRP | -0.0146
66 | RRIRKRPPRLPRPRPRPQEYPRP | -0.0576
67 | RRIRKRPPRLPRPRPRPQFTPRP | -0.0285
68 | RRIRKRPPRLPRPRPRPQGLPRP | 0.256
69 | RRIRKRPPRLPRPRPRPQHHPRP | -0.201
70 | RRIRKRPPRLPRPRPRPQKSPRP | 0.0653
71 | RRIRKRPPRLPRPRPRPQLGPRP | 0.378
72 | RRIRKRPPRLPRPRPRPQLLPRP | 0.261
73 | RRIRKRPPRLPRPRPRPQLTPRP | 0.14
74 | RRIRKRPPRLPRPRPRPQMDPRP | 0.618
75 | RRIRKRPPRLPRPRPRPQMWPRP | 0.608

Row | Sequence | shrunken log2 fold change
76 | RRIRKRPPRLPRPRPRPQNKPRP | 0.0275
77 | RRIRKRPPRLPRPRPRPQNWPRP | 0.508
78 | RRIRKRPPRLPRPRPRPQPYPRP | -0.157
79 | RRIRKRPPRLPRPRPRPQQHPRP | 0.138
80 | RRIRKRPPRLPRPRPRPQQSPRP | -0.0568
81 | RRIRKRPPRLPRPRPRPQRDPRP | 0.858
82 | RRIRKRPPRLPRPRPRPQSKPRP | 0.116
83 | RRIRKRPPRLPRPRPRPQTVPRP | 0.0918
84 | RRIRKRPPRLPRPRPRPQTYPRP | -0.021
85 | RRIRKRPPRLPRPRPRPQVHPRP | -0.161
86 | RRIRKRPPRLPRPRPRPQWKPRP | 0.17
87 | RRIRKRPPRLPRPRPRPQWNPRP | -0.105
88 | RRIRKRPPRLPRPRPRPQWPPRP | 0.124
89 | RRIRKRPPRLPRPRPRPQWSPRP | 0.00166
90 | RRIRKRPPRLPRPRPRPQYHPRP | -0.432
91 | RRIRKRPPRLPRPRPRPQYMPRP | 0.0201
92 | RRIRKRPPRLPRPRPRPRARPRP | 0.776
93 | RRIRKRPPRLPRPRPRPRCAPRP | 0.568
94 | RRIRKRPPRLPRPRPRPRDPPRP | 1.06
95 | RRIRKRPPRLPRPRPRPRDRPRP | 1.26
96 | RRIRKRPPRLPRPRPRPREKPRP | -0.107
97 | RRIRKRPPRLPRPRPRPRESPRP | 0.159
98 | RRIRKRPPRLPRPRPRPRETPRP | 0.0512
99 | RRIRKRPPRLPRPRPRPRHGPRP | -0.0248
100 | RRIRKRPPRLPRPRPRPRIGPRP | 0.128

Row | Sequence | shrunken log2 fold change
101 | RRIRKRPPRLPRPRPRPRKCPRP | 0.0121
102 | RRIRKRPPRLPRPRPRPRKSPRP | 0.727
103 | RRIRKRPPRLPRPRPRPRLHPRP | 0.312
104 | RRIRKRPPRLPRPRPRPRLRPRP | 0.485
105 | RRIRKRPPRLPRPRPRPRLSPRP | 0.0586
106 | RRIRKRPPRLPRPRPRPRMCPRP | -0.211
107 | RRIRKRPPRLPRPRPRPRPRPRP | 1.01
108 | RRIRKRPPRLPRPRPRPRQTPRP | 0.0644
109 | RRIRKRPPRLPRPRPRPRQVPRP | 0.029
110 | RRIRKRPPRLPRPRPRPRQYPRP | 0.0199
111 | RRIRKRPPRLPRPRPRPRSDPRP | 0.197
112 | RRIRKRPPRLPRPRPRPRWPPRP | 0.528
113 | RRIRKRPPRLPRPRPRPRYMPRP | -0.334
114 | RRIRKRPPRLPRPRPRPSAPPRP | 0.504
115 | RRIRKRPPRLPRPRPRPSCDPRP | 0.141
116 | RRIRKRPPRLPRPRPRPSCVPRP | 0.311
117 | RRIRKRPPRLPRPRPRPSDLPRP | 0.154
118 | RRIRKRPPRLPRPRPRPSDWPRP | 0.288
119 | RRIRKRPPRLPRPRPRPSEHPRP | -0.183
120 | RRIRKRPPRLPRPRPRPSFEPRP | 0.000728
121 | RRIRKRPPRLPRPRPRPSFFPRP | -0.0585
122 | RRIRKRPPRLPRPRPRPSFGPRP | -0.324
123 | RRIRKRPPRLPRPRPRPSFVPRP | -0.174
124 | RRIRKRPPRLPRPRPRPSFWPRP | 0.299
125 | RRIRKRPPRLPRPRPRPSHIPRP | 0.156

Row | Sequence | shrunken log2 fold change
126 | RRIRKRPPRLPRPRPRPSHWPRP | 0.275
127 | RRIRKRPPRLPRPRPRPSITPRP | 0.846
128 | RRIRKRPPRLPRPRPRPSIYPRP | -0.353
129 | RRIRKRPPRLPRPRPRPSKRPRP | 0.0981
130 | RRIRKRPPRLPRPRPRPSKTPRP | 0.0486
131 | RRIRKRPPRLPRPRPRPSMGPRP | -0.267
132 | RRIRKRPPRLPRPRPRPSPPPRP | 0.305
133 | RRIRKRPPRLPRPRPRPSPSPRP | 0.452
134 | RRIRKRPPRLPRPRPRPSPTPRP | -0.00658
135 | RRIRKRPPRLPRPRPRPSQMPRP | 0.247
136 | RRIRKRPPRLPRPRPRPSRCPRP | 0.392
137 | RRIRKRPPRLPRPRPRPSSDPRP | 0.246
138 | RRIRKRPPRLPRPRPRPSTPPRP | 0.0478
139 | RRIRKRPPRLPRPRPRPSTRPRP | -0.114
140 | RRIRKRPPRLPRPRPRPSTSPRP | -0.0896
141 | RRIRKRPPRLPRPRPRPSYQPRP | -0.52
142 | RRIRKRPPRLPRPRPRPTCLPRP | 0.0518
143 | RRIRKRPPRLPRPRPRPTCVPRP | 0.241
144 | RRIRKRPPRLPRPRPRPTDGPRP | 0.396
145 | RRIRKRPPRLPRPRPRPTDYPRP | 0.124
146 | RRIRKRPPRLPRPRPRPTEDPRP | 1.03
147 | RRIRKRPPRLPRPRPRPTENPRP | 0.143
148 | RRIRKRPPRLPRPRPRPTESPRP | 0.00281
149 | RRIRKRPPRLPRPRPRPTHPPRP | 0.932
150 | RRIRKRPPRLPRPRPRPTKAPRP | 0.647
